Measurements as given in paper PMC10696041 (2023).

Molecular target: T1, PCPE1 (Homo sapiens (Human), UniProt Q15113)
T1 chain: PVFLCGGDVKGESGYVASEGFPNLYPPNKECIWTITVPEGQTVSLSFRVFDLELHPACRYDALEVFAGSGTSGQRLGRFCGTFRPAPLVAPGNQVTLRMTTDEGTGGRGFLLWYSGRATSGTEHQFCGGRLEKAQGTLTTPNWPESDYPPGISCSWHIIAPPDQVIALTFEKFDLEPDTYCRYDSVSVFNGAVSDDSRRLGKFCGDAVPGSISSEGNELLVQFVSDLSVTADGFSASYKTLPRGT
Test: Ki app, fluorogenic peptide

B1: BMP1 (protein)
chain: AATSRPERVWPDGVIPFVIGGNFTGSQRAVFRQAMRHWEKHTCVTFLERTDEDSYIVFTYRPCGCCSYVGRRGGGPQAISIGKNCDKFGIVVHELGHVVGFWHEHTRPDRDRHVSIVRENIQPGQEYNFLKMEPQEVESLGETYDFDSIMHYARNTFSRGIFLDTIVPKYEVNGVKPPIGQRTRLSKGDIAQARKLYKCPACGETLQDSTGNFSSPEYPNGYSAHMHCVWRISVTPGEKIILNFTSLDLYRSRLCWYDYVEVRDGFWRKAPLRGRFCGSKLPEPIVSTDSRLWVEFRSSSNWVGKGFFAVYEAICGGDVKKDYGHIQSPNYPDDYRPSKVCIWRIQVSEGFHVGLTFQSFEIERHDSCAYDYLEVRDGHSESSTLIGRYCGYEKPDDIKSTSSRLWLKFVSDGSINKAGFAVNFFK
- apparent Ki: > 150 nM
